This passage reports O.D results from patent publication US20100080800A1.

The assay addresses Aβ13-21 peptide (peptide 13). Put plainly: ELISA, biotinylated peptide (Mimotopes protocol).

Control IgG (antibody) yielded an O.D of 0.171 O.D.
